Target: NRPS-13 subunit B: SZ18 at the N-terminus of the C-terminal part of XtpS, split in the A-T linker of module two (Xenorhabdus nematophila ATCC 19061)
Test: cell-based or functional assay

Chain of NRPS-13 subunit B: SZ18 at the N-terminus of the C-terminal part of XtpS, split in the A-T linker of module two (Xenorhabdus nematophila ATCC 19061) (chain, as listed by the source): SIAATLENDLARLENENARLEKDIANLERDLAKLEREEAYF

peptide yield of xenotetrapeptide 1 by the split synthetase NRPS-13 produced in E. coli DH10B::mtaA (HPLC-MS/MS): 155 mg/L
Substance: NRPS-13 subunit A: N-terminal part of XtpS, split in the A-T linker of module two, with SZ17 at its C-terminus (enzyme)
